Assay results published in article PMC4329988.

Target: phosphatidyl inositol 5-phosphate 4-kinase 2β subunit (PI5P4K2β), C-terminal 3xFLAG and two 6xHis tags (chicken (endogenous in DT40))
Assay: affinity purification with mass spectrometry; SILAC-iPAC: lysates of JPR3 cells (tagged PI5P4K2β) and tag-less wild-type DT40 cells, differentially SILAC labelled (K6R6 or K0R0, reciprocal labellings), mixed 1:1; captured in parallel on EZview ANTI-FLAG M2 Affinity Gel and TALON Metal Affinity Resin for 1 h; lysis buffer 1x PBS pH 7.4, 1% Triton X-100; eluted with 3xFLAG peptide or 150 mM imidazole; LC-MS/MS, MaxQuant ratios

B1: phosphatidyl inositol 5-phosphate 4-kinase 2α subunit (PI5P4K2α) (natural protein)
chain: MAAPGTVASVMASKTKTKKKHFVVQKVKLFRASDPLLSVLMWGVNHSINELSHVQIPVMLMPDDFKAYSKIKVDNHLFNKENMPSHFKFKEYCPMVFRNLRERFGIDDQDFQNSLTRSAPLANDSQARSGARFHTSYDKRYIIKTITSEDVAEMHNILKKYHQFIVECHGNTLLPQFLGMYRLTVDGVEIYMIVTRNVFSHRLSVYRKYDLKGSTVAREASDKEKAKELPTFKDNDFINDGQKIHIDENNKRMFLEKLKKDVEFLAQLKLMDYSLLVGIHDVERAEQEEVECEENDGEDEGESDGTHPIGTPPDSPGNTLNSSLPLAPGEFDPAIDVYGIKSHESAPRKEVYFMAIIDILTHYDAKKKAAHAAKTVKHGAGAEISTVNPEQYSKRFLDFIANILT
ratio of PI5P4K2β:PI5P4K2α in the pull-down: 1.28
